Results: article doi:10.1101/2021.05.10.443412 (bioRxiv, 2021)
Residue numbers refer to the chain shown, from its start.

Key:
Test in all cases: ITC
[1] = molecular target: FIH-1 E29A (human, UniProt Q9NWT6 1-349, Glu29 replaced with Ala)
[2] = molecular target: FIH-1 E79A (human, UniProt Q9NWT6 1-349, Glu79 replaced with Ala)
[3] = molecular target: factor inhibiting HIF-1 (FIH-1), full-length (human, UniProt Q9NWT6 1-349)
[4] = molecular target: FIH-1 E250A (human, UniProt Q9NWT6 1-349, Glu250 replaced with Ala)
FIH-1 E250A, sequence (Q9NWT6 whole entry E250A): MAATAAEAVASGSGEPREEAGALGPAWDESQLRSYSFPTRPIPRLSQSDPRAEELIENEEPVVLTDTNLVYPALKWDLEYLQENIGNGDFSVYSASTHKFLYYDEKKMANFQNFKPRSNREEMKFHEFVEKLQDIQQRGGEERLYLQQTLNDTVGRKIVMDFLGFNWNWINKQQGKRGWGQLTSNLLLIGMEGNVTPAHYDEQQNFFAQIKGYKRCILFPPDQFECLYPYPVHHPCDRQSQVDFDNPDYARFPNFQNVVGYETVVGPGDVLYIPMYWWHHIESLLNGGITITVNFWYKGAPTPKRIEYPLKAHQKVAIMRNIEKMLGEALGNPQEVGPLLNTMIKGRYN

[5] = molecular target: FIH-1 N171A (human, UniProt Q9NWT6 1-349, Asn171 replaced with Ala)
FIH-1 N171A, sequence (Q9NWT6 whole entry N171A): as the sequence (Q9NWT6 whole entry E250A) above, with N171A, A250E counted along it

[6] = molecular target: FIH-1 Y71A (human, UniProt Q9NWT6 1-349, Tyr71 replaced with Ala)
FIH-1 Y71A, sequence (Q9NWT6 whole entry Y71A): as the sequence (Q9NWT6 whole entry E250A) above, with Y71A, A250E counted along it

[7] = molecular target: FIH-1 D248A (human, UniProt Q9NWT6 1-349, Asp248 replaced with Ala)
FIH-1 D248A, sequence (Q9NWT6 whole entry D248A): as the sequence (Q9NWT6 whole entry E250A) above, with D248A, A250E counted along it

[8] = molecular target: FIH-1 K75A (human, UniProt Q9NWT6 1-349, Lys75 replaced with Ala)
FIH-1 K75A, sequence (Q9NWT6 whole entry K75A): as the sequence (Q9NWT6 whole entry E250A) above, with K75A, A250E counted along it

factor inhibiting HIF-1 (FIH-1), full-length, sequence (Q9NWT6 whole entry): as the sequence (Q9NWT6 whole entry E250A) above, with A250E counted along it
FIH-1 E29A, sequence (Q9NWT6 whole entry E29A): as the sequence (Q9NWT6 whole entry E250A) above, with E29A, A250E counted along it
FIH-1 E79A, sequence (Q9NWT6 whole entry E79A): as the sequence (Q9NWT6 whole entry E250A) above, with E79A, A250E counted along it

B1: Mint3NT, N-terminal fragment (1-214) of Mint3 (domain or fragment)
chain: MDFPTISRSPSGPPAMDLEGPRDILVPSEDLTPDSQWDPMPGGPGSLSRMELDESSLQELVQQFEALPGDLVGPSPGGAPCPLHIATGHGLASQEIADAHGLLSAEAGRDDLLGLLHCEECPPSQTGPEEPLEPAPRLLQPPEDPDEDSDSPEWVEGASAEQEGSRSSSSSPEPWLETVPLVTPEEPPAGAQSPETLASYPAPQEVPGPCDHED
**Q.** Does B1 bind [1]?
**A.** Result: binds

**Q.** Does B1 bind [2]?
**A.** Result: binds

**Q.** And the dH [3]?
**A.** Its dH is -32.2 ± 0.7 kcal/mol.

**Q.** What about the “stoichiometry N” value [3] of the same binder?
**A.** The value was 0.48 ± 0.02.

**Q.** Does B1 bind [4]?
**A.** Result: binds

**Q.** Does B1 bind [5]?
**A.** Result: binds

**Q.** Does B1 bind [6]?
**A.** Result: binds

**Q.** Does B1 bind [7]?
**A.** Result: binds

**Q.** Does B1 bind [8]?
**A.** Result: binds

B2: Mint3NTmut (domain or fragment)
chain: B1 chain with G101A, L102A, L103A, E106A
**Q.** What does the source list for B2?
**A.** Kd [3]: 1310 nM; dH [3]: -13.9 kcal/mol; stoichiometry N [3]: ~0.5

B3: Mint3 fragment (1-92) (domain or fragment)
chain: MDFPTISRSPSGPPAMDLEGPRDILVPSEDLTPDSQWDPMPGGPGSLSRMELDESSLQELVQQFEALPGDLVGPSPGGAPCPLHIATGHGLA
**Q.** Which “stoichiometry N” value [3] does the source give for B3 here?
**A.** The value was roughly 0.5.

**Q.** With SQEIADAHGLLSAEAGRDDLLGLLH [short peptide of Mint3 (93-117)] as the binder, how does the Kd [3] read?
**A.** Its Kd is 3000 ± 600 nM.

**Q.** And the “stoichiometry N” value [3]?
**A.** Its value is roughly 0.5.

B4: Mint3 (1-117) (domain or fragment)
chain: MDFPTISRSPSGPPAMDLEGPRDILVPSEDLTPDSQWDPMPGGPGSLSRMELDESSLQELVQQFEALPGDLVGPSPGGAPCPLHIATGHGLASQEIADAHGLLSAEAGRDDLLGLLH
**Q.** For B4, which Kd [3] is on record?
**A.** The Kd was 650 ± 70 nM.

**Q.** What about the “stoichiometry N” value [3] of the same binder?
**A.** Its value is roughly 0.5.
